Measurements taken from US12338277.

Assays:
Test in all cases: cell-based or functional assay
[1] = biological target: HIV-1 envelope of pseudovirus HIV-001428-2.42 (HIV-1)
[2] = biological target: HIV-1 envelope of pseudovirus Du172.17 (HIV-1)
[3] = biological target: HIV-1 envelope of pseudovirus 231966.c02 (HIV-1)
[4] = biological target: HIV-1 envelope spike of pseudovirus QH0692.42 (HIV-1)
[5] = biological target: HIV-1 envelope of pseudovirus TRJO4551.58 (HIV-1)
[6] = biological target: HIV-1 Env of pseudovirus Ce2060_G9 (HIV-1)
[7] = biological target: HIV-1 envelope of pseudovirus MS208.A1 (HIV-1)
[8] = biological target: HIV-1 Env of pseudovirus 6244_13_85_4576 (HIV-1)
[9] = biological target: HIV-1 Env of pseudovirus 3016.v5.c45 (HIV-1)
[10] = biological target: HIV-1 envelope of pseudovirus BF1266.431a (HIV-1)
[11] = biological target: HIV-1 envelope of pseudovirus 6952.v1.c20 (HIV-1)
[12] = biological target: HIV-1 Env of pseudovirus ZM247v1(Rev-) (HIV-1)
[13] = biological target: HIV-1 Env of pseudovirus HIV-001428-2.42 (HIV-1)
[14] = biological target: HIV-1 Env of pseudovirus Ce2010_F5 (HIV-1)
[15] = biological target: HIV-1 Env of pseudovirus SC422661.8 (HIV-1)
[16] = biological target: HIV-1 Env of pseudovirus BF1266.431a (HIV-1)
[17] = biological target: HIV-1 envelope of pseudovirus 6811.v7.c18 (HIV-1)
[18] = biological target: HIV-1 Env of pseudovirus 249M B10 (HIV-1)
[19] = biological target: HIV-1 envelope of pseudovirus Ce0393_C3 (HIV-1)
[20] = biological target: HIV-1 Env of pseudovirus 620345.c01 (HIV-1)
[21] = biological target: HIV-1 Env of pseudovirus HIV-0013095-2.11 (HIV-1)
[22] = biological target: HIV-1 envelope of pseudovirus A07412M1.vrc12 (HIV-1)
[23] = biological target: HIV-1 Env of pseudovirus T278-50 (HIV-1)
[24] = biological target: HIV-1 Env of pseudovirus Du156.12 (HIV-1)
[25] = biological target: HIV-1 Env of pseudovirus R1166.c01 (HIV-1)
[26] = biological target: HIV-1 Env of pseudovirus CAP45.2.00.G3 (HIV-1)
[27] = biological target: HIV-1 Env of pseudovirus MS208.A1 (HIV-1)
[28] = biological target: HIV-1 Env of pseudovirus Ce1172_H1 (HIV-1)
[29] = biological target: HIV-1 Env of pseudovirus 191821_E6_1 (HIV-1)
[30] = biological target: HIV-1 Env of pseudovirus 3817.v2.c59 (HIV-1)
[31] = biological target: HIV-1 envelope spike of pseudovirus YU-2 (HIV-1) (UniProt P35961)
Chain of HIV-1 envelope spike of pseudovirus YU-2 (HIV-1) (P35961 32-843): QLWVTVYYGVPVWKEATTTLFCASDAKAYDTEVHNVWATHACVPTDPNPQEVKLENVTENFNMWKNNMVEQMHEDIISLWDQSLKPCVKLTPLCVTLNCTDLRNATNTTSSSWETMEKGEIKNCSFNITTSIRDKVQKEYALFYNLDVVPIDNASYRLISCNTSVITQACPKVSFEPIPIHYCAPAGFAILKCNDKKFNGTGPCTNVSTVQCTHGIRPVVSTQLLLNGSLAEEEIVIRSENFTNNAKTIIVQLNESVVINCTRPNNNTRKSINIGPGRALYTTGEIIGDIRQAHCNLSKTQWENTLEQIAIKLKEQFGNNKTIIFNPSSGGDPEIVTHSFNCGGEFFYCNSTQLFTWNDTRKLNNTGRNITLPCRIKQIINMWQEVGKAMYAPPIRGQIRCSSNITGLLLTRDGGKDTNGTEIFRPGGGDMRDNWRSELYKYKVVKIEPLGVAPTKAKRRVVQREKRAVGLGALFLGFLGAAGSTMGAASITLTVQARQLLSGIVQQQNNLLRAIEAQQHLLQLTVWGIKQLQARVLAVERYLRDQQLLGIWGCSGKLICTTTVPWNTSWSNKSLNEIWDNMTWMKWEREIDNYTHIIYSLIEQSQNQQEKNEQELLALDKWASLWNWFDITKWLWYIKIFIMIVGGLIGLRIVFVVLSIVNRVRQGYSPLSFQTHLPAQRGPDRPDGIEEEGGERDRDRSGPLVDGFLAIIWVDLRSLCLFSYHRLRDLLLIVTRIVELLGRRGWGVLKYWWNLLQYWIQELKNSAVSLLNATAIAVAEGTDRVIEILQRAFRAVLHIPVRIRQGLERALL

[32] = biological target: HIV-1 Env of pseudovirus 191084 B7-19 (HIV-1)
[33] = biological target: HIV-1 Env of pseudovirus 0815.v3.c3 (HIV-1)
[34] = biological target: HIV-1 envelope of pseudovirus ZM214M.PL15 (HIV-1)
[35] = biological target: HIV-1 envelope of pseudovirus CNE20 (HIV-1)
[36] = biological target: HIV-1 envelope of pseudovirus Ce2010_F5 (HIV-1)
[37] = biological target: HIV-1 Env of pseudovirus ZM197M.PB7 (HIV-1)
[38] = biological target: HIV-1 Env of pseudovirus 235-47 (HIV-1)
[39] = biological target: HIV-1 envelope spike of pseudovirus SS1196.1 (HIV-1)
[40] = biological target: HIV-1 Env of pseudovirus 9004SS_A3_4 (HIV-1)
[41] = biological target: HIV-1 envelope of pseudovirus CNE30 (HIV-1)
[42] = biological target: HIV-1 envelope of pseudovirus Ce0682_E4 (HIV-1)
[43] = biological target: HIV-1 Env of pseudovirus C2101.c01 (HIV-1)
[44] = biological target: HIV-1 envelope of pseudovirus 3415.v1.c1 (HIV-1)
[45] = biological target: HIV-1 envelope of pseudovirus BJOX015000.11.5 (HIV-1)
[46] = biological target: HIV-1 Env of pseudovirus Ce0682_E4 (HIV-1)
[47] = biological target: HIV-1 envelope of pseudovirus 620345.c01 (HIV-1)
[48] = biological target: HIV-1 Env of pseudovirus Q259.d2.17 (HIV-1)
[49] = biological target: HIV-1 envelope of pseudovirus PVO.4 (HIV-1)
[50] = biological target: HIV-1 Env of pseudovirus Ce703010054_2A2 (HIV-1)

Chain of 10-1074 (antibody) (VH): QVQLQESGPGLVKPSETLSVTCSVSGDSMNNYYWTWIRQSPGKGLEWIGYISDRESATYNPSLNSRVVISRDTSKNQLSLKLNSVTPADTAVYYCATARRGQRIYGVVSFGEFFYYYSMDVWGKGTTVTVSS
Chain of 10-1074 (antibody) (V domain): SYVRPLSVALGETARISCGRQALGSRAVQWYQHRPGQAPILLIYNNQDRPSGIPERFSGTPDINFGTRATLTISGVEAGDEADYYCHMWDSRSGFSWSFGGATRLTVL

## 10-1074 (antibody)
[1]
  IC50 (TZM-bl neutralization): 0.044 mg/L
[2]
  IC50 (TZM-bl neutralization): 0.121 mg/L
[3]
  IC50 (TZM-bl neutralization): > 50 mg/L
[4]
  IC50 (TZM-bl neutralization assay): 0.259 mg/L
  IC80 (TZM-bl neutralization assay): 0.861 mg/L
[5]
  IC50 (TZM-bl neutralization): 0.17 mg/L
[6]
  IC80 (TZM-bl neutralization): > 50 mg/L
[7]
  IC50 (TZM-bl neutralization): > 50 mg/L
[8]
  IC80 (TZM-bl neutralization): 0.922 mg/L
[9]
  IC80 (TZM-bl neutralization): > 50 mg/L
[10]
  IC50 (TZM-bl neutralization): > 50 mg/L
[11]
  IC50 (TZM-bl neutralization): 0.037 mg/L
[12]
  IC80 (TZM-bl neutralization): 0.186 mg/L
[13]
  IC80 (TZM-bl neutralization): 0.261 mg/L
[14]
  IC80 (TZM-bl neutralization): > 50 mg/L
[15]
  IC80 (TZM-bl neutralization): 0.418 mg/L
[16]
  IC80 (TZM-bl neutralization): > 50 mg/L
[17]
  IC50 (TZM-bl neutralization): 0.002 mg/L
[18]
  IC80 (TZM-bl neutralization): > 50 mg/L
[19]
  IC50 (TZM-bl neutralization): > 50 mg/L
[20]
  IC80 (TZM-bl neutralization): > 50 mg/L
[21]
  IC80 (TZM-bl neutralization): > 50 mg/L
[22]
  IC50 (TZM-bl neutralization): < 0.001 mg/L
[23]
  IC80 (TZM-bl neutralization): 18.3 mg/L
[24]
  IC80 (TZM-bl neutralization): 0.076 mg/L
[25]
  IC80 (TZM-bl neutralization): > 50 mg/L
[26]
  IC80 (TZM-bl neutralization): > 50 mg/L
[27]
  IC80 (TZM-bl neutralization): > 50 mg/L
[28]
  IC80 (TZM-bl neutralization): 0.166 mg/L
[29]
  IC80 (TZM-bl neutralization): > 50 mg/L
[30]
  IC80 (TZM-bl neutralization): 14.9 mg/L
[31]
  IC50 (TZM-bl neutralization assay): 0.143 mg/L
  IC80 (TZM-bl neutralization assay): 0.398 mg/L
[32]
  IC80 (TZM-bl neutralization): 0.128 mg/L
[33]
  IC80 (TZM-bl neutralization): 0.138 mg/L
[34]
  IC50 (TZM-bl neutralization): 0.174 mg/L
[35]
  IC50 (TZM-bl neutralization): < 0.001 mg/L
[36]
  IC50 (TZM-bl neutralization): > 50 mg/L
[37]
  IC80 (TZM-bl neutralization): > 50 mg/L
[38]
  IC80 (TZM-bl neutralization): 0.163 mg/L
[39]
  IC50 (TZM-bl neutralization assay): 0.01 mg/L
  IC80 (TZM-bl neutralization assay): 0.127 mg/L
[40]
  IC80 (TZM-bl neutralization): 0.03 mg/L
[41]
  IC50 (TZM-bl neutralization): 0.363 mg/L
[42]
  IC50 (TZM-bl neutralization): > 50 mg/L
[43]
  IC80 (TZM-bl neutralization): > 50 mg/L
[44]
  IC50 (TZM-bl neutralization): > 50 mg/L
[45]
  IC50 (TZM-bl neutralization): > 50 mg/L
[46]
  IC80 (TZM-bl neutralization): > 50 mg/L
[47]
  IC50 (TZM-bl neutralization): > 50 mg/L
[48]
  IC80 (TZM-bl neutralization): > 50 mg/L
[49]
  IC50 (TZM-bl neutralization): 0.074 mg/L
[50]
  IC80 (TZM-bl neutralization): > 50 mg/L

## PGT121 (antibody)
[1]
  IC50 (TZM-bl neutralization): 0.028 mg/L
[2]
  IC50 (TZM-bl neutralization): 0.115 mg/L
[3]
  IC50 (TZM-bl neutralization): > 50 mg/L
[4]
  IC50 (TZM-bl neutralization assay): 1.08 mg/L
[5]
  IC50 (TZM-bl neutralization): 3.73 mg/L
[6]
  IC80 (TZM-bl neutralization): > 50 mg/L
[7]
  IC50 (TZM-bl neutralization): > 50 mg/L
[8]
  IC80 (TZM-bl neutralization): 1.88 mg/L
[9]
  IC80 (TZM-bl neutralization): > 50 mg/L
[10]
  IC50 (TZM-bl neutralization): > 50 mg/L
[11]
  IC50 (TZM-bl neutralization): 0.085 mg/L
[12]
  IC80 (TZM-bl neutralization): 0.126 mg/L
[13]
  IC80 (TZM-bl neutralization): 0.156 mg/L
[14]
  IC80 (TZM-bl neutralization): > 50 mg/L
[15]
  IC80 (TZM-bl neutralization): 0.46 mg/L
[16]
  IC80 (TZM-bl neutralization): > 50 mg/L
[17]
  IC50 (TZM-bl neutralization): 0.004 mg/L
[18]
  IC80 (TZM-bl neutralization): > 50 mg/L
[19]
  IC50 (TZM-bl neutralization): > 50 mg/L
[20]
  IC80 (TZM-bl neutralization): > 50 mg/L
[21]
  IC80 (TZM-bl neutralization): > 50 mg/L
[22]
  IC50 (TZM-bl neutralization): 0.001 mg/L
[23]
  IC80 (TZM-bl neutralization): > 50 mg/L
[24]
  IC80 (TZM-bl neutralization): 0.033 mg/L
[25]
  IC80 (TZM-bl neutralization): > 50 mg/L
[26]
  IC80 (TZM-bl neutralization): 6.54 mg/L
[27]
  IC80 (TZM-bl neutralization): > 50 mg/L
[28]
  IC80 (TZM-bl neutralization): 0.088 mg/L
[29]
  IC80 (TZM-bl neutralization): > 50 mg/L
[30]
  IC80 (TZM-bl neutralization): > 50 mg/L
[31]
  IC50 (TZM-bl neutralization assay): 0.098 mg/L
  IC80 (TZM-bl neutralization assay): 0.356 mg/L
[32]
  IC80 (TZM-bl neutralization): 0.128 mg/L
[33]
  IC80 (TZM-bl neutralization): 0.105 mg/L
[34]
  IC50 (TZM-bl neutralization): 0.236 mg/L
[35]
  IC50 (TZM-bl neutralization): 0.002 mg/L
[36]
  IC50 (TZM-bl neutralization): > 50 mg/L
[37]
  IC80 (TZM-bl neutralization): > 50 mg/L
[38]
  IC80 (TZM-bl neutralization): 1.68 mg/L
[39]
  IC50 (TZM-bl neutralization assay): 0.008 mg/L
  IC80 (TZM-bl neutralization assay): 0.03 mg/L
[40]
  IC80 (TZM-bl neutralization): 0.026 mg/L
[41]
  IC50 (TZM-bl neutralization): 0.101 mg/L
[42]
  IC50 (TZM-bl neutralization): > 50 mg/L
[43]
  IC80 (TZM-bl neutralization): > 50 mg/L
[44]
  IC50 (TZM-bl neutralization): > 50 mg/L
[45]
  IC50 (TZM-bl neutralization): > 50 mg/L
[46]
  IC80 (TZM-bl neutralization): > 50 mg/L
[47]
  IC50 (TZM-bl neutralization): > 50 mg/L
[48]
  IC80 (TZM-bl neutralization): > 50 mg/L
[49]
  IC50 (TZM-bl neutralization): 0.131 mg/L
[50]
  IC80 (TZM-bl neutralization): > 50 mg/L
